The target of the assay is CX1 S ectodomain with stabilizing mutations. Description: AUC.

Data on one substance can be found in article PMC12363175.

Sequence of peptidase domain (PD) of hACE2 (Q9BYF1 19-615): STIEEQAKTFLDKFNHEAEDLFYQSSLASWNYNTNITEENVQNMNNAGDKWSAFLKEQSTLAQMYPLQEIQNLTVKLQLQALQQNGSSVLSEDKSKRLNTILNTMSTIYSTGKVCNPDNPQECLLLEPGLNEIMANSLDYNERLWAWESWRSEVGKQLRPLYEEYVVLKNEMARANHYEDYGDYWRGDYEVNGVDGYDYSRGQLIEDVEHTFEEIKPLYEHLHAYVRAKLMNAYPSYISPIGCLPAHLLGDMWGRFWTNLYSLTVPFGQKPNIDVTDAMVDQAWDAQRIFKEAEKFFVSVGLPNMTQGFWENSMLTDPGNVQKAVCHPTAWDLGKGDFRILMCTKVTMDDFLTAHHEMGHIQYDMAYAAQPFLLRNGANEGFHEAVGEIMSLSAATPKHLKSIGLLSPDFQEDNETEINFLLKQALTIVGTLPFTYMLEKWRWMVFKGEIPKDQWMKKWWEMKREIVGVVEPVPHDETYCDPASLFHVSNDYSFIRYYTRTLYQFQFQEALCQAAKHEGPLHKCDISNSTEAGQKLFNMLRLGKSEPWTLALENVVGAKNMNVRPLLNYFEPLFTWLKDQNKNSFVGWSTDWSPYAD

“peptidase domain (PD) of hACE2 (from UniProt Q9BYF1 19-615) (domain or fragment)” came in with a stoichiometry N (hACE2 molecules per S trimer) of 2.
